Test results as given in patent US20020177203A1, “Alpha2 subunit of prolyl 4-hydroxylase” (priority 1996, published 2002).
pKi: −log10 of the molar value.

Assays:
[1] = target: mouse/human type 2 prolyl 4-hydroxylase tetramer (mouse; human) (UniProt P07237); assay: cell-based or functional assay
[2] = target: human type 1 prolyl 4-hydroxylase tetramer (human) (UniProt P13674); assay: inhibition of prolyl 4-hydroxylase activity (2-oxo[1-14C]glutarate decarboxylation), insect cell extract
Chain of human type 1 prolyl 4-hydroxylase tetramer (human) (P13674 18-534, chain 1 of 2): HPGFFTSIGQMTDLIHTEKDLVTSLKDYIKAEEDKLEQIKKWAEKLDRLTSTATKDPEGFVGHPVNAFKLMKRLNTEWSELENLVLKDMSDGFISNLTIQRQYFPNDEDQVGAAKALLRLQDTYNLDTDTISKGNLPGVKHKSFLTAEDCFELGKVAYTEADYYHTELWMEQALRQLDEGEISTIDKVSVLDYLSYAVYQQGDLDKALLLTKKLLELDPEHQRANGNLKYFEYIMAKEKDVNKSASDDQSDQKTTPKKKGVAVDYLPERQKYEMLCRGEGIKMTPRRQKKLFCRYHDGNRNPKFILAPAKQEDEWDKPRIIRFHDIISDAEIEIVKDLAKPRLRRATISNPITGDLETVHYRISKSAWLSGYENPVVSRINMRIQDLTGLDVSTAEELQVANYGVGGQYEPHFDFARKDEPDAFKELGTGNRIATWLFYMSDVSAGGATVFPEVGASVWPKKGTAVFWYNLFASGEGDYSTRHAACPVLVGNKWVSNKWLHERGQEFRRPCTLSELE
Chain of human type 1 prolyl 4-hydroxylase tetramer (human) (P07237 18-508, chain 2 of 2, further chain): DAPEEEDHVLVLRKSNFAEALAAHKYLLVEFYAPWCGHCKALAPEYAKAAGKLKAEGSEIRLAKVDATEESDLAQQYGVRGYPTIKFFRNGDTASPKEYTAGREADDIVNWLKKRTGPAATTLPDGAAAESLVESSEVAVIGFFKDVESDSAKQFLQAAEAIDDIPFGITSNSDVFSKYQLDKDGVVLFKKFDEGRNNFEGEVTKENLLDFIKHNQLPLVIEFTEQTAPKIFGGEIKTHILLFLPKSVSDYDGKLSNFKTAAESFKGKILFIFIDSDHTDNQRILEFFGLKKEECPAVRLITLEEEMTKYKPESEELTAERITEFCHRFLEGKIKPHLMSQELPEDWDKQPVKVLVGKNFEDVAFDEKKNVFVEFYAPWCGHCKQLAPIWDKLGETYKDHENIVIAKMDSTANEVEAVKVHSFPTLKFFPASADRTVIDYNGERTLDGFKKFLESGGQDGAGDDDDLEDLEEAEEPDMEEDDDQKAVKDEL

Chain of mouse/human type 2 prolyl 4-hydroxylase tetramer (mouse; human) (chain, as listed by the source, chain 1 of 2): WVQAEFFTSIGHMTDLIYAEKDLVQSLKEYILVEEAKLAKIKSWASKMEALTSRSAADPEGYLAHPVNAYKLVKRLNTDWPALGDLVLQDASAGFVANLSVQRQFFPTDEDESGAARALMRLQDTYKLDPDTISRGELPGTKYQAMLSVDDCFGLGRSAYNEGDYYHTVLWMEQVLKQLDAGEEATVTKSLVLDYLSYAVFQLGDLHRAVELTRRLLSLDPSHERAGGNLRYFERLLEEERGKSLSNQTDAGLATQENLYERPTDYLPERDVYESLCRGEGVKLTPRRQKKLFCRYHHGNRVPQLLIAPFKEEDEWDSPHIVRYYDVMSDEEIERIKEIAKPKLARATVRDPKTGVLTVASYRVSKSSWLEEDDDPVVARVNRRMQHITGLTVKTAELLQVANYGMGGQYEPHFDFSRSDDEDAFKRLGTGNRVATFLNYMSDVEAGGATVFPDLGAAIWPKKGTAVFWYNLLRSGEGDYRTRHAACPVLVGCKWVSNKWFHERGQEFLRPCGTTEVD
Chain of mouse/human type 2 prolyl 4-hydroxylase tetramer (mouse; human) (P07237 18-508, chain 2 of 2): as the sequence (P07237 18-508, chain 2 of 2, further chain) above

Row | IC50 (inhibition of prolyl 4-hydroxylase activity; printed in the Ki row) [1] | pKi [2] | Substance
1 | 30 µM | 7.70 | Poly(L-proline), Mr 44,000 (peptide)
2 | 300 µM | 6.30 | Poly(L-proline), Mr 7000 (peptide)
